The test system of experiment [1] is DYT-TOR1A MEF EVs. Briefly: Quantitative LC-MS/MS proteomics of EVs from drug-treated DYT-TOR1A MEF cultures (ritonavir, salubrinal). In kind it is cell-based, mouse. Also on record: key to RTV Corrective Direction / RTV Corrective Direction, Grwd1 / RTV Corrective Direction, Srrm2 / RTV Corrective Direction, Rbm17 / RTV Corrective Direction, Dcaf8 / RTV Corrective Direction, Edil3 / RTV Corrective Direction, Timp3 / RTV Corrective Direction, Heatr3 / RTV Corrective Direction, Brd4 / RTV Corrective Direction, P3h4 / RTV Corrective Direction, Pacsin3 / RTV Corrective Direction, Naa50 / RTV Corrective Direction, Lpar6 / RTV Corrective Direction, Ndrg1 / RTV Corrective Direction, Kntc1 / RTV Corrective Direction, Cdk11b / RTV Corrective Direction, Sumo1 / RTV Corrective Direction, Lsm4 / RTV Corrective Direction, Hmga2 / RTV Corrective Direction, Cstf1 / RTV Corrective Direction, Tes / RTV Corrective Direction, Sbno1 / RTV Corrective Direction, Unc119b / RTV Corrective Direction, Cfdp1 / RTV Corrective Direction, Sec61b: YES = protein abundance effect opposite to DYT/WT. The note with it: EV protein abundance; for RTV Corrective Direction: DYT + RTV (ritonavir) vs DYT, direction compared with DYT/WT; for DYT + RTV/DYT Cohen's d: ritonavir (RTV)-treated DYT vs DYT.

For experiment [2], the system named is WT MEF EVs. Briefly: Quantitative LC-MS/MS proteomics of EVs from ISRIB-treated WT MEF cultures. The note with it: EV protein abundance; for WT + ISRIB/WT Cohen's d: ISRIB-treated WT vs WT; for ISRIB and DYT Parallel Direction: WT + ISRIB vs WT, direction compared with DYT/WT. Also on record: key to ISRIB and DYT Parallel Direction / ISRIB and DYT Parallel Direction, Ctdsp1 / ISRIB and DYT Parallel Direction, Pcdh19 / ISRIB and DYT Parallel Direction, Tspan7 / ISRIB and DYT Parallel Direction, Myo1e / ISRIB and DYT Parallel Direction, Plpp3 / ISRIB and DYT Parallel Direction, Sh3bp4 / ISRIB and DYT Parallel Direction, Dnajc7 / ISRIB and DYT Parallel Direction, Drg1 / ISRIB and DYT Parallel Direction, Maea: YES = protein abundance effect similar to DYT/WT. In kind it is cell-based, mouse.

B1: Tars (protein, UniProt Q9D0R2 1-722, looked up)
Threonine--tRNA ligase 1, …: MSQEKASSPSGKMDGEKPVDASEEKRKEGGKKKSKDGGGDGGRAELNPWPEYINTRLDMYNKLKAEHDSILAEKAAKDSKPIKVTLPDGKQVDAESWKTTPYQIACGISQGLADNTVVAKVNKVVWDLDRPLETDCTLELLKFEDEEAQAVYWHSSAHIMGEAMERVYGGCLCYGPPIENGFYYDMYLEEGGVSSNDFSSLETLCKKIIKEKQTFERLEVKKETLLEMFKYNKFKCRILNEKVNTPTTTVYRCGPLIDLCRGPHVRHTGKIKTLKIHKNSSTYWEGKADMETLQRIYGISFPDPKLLKEWEKFQEEAKNRDHRKIGRDQELYFFHELSPGSCFFLPKGAYIYNTLMEFIRSEYRKRGFQEVVTPNIFNSRLWMTSGHWQHYSENMFSFEVEKEQFALKPMNCPGHCLMFDHRPRSWRELPLRLADFGVLHRNELSGALTGLTRVRRFQQDDAHIFCAMEQIEDEIKGCLDFLRTVYSVFGFSFKLNLSTRPEKFLGDIEIWNQAEKQLENSLNEFGEKWELNPGDGAFYGPKIDIQIKDAIGRYHQCATIQLDFQLPIRFNLTYVSHDGDDKKRPVIVHRAILGSVERMIAILTENYGGKWPFWLSPRQVMVVPVGPTCDEYAQKVRQQFHDAKFMADTDLDPGCTLNKKIRNAQLAQYNFILVVGEKEKASGTVNIRTRDNKVHGERTVEETVRRLQQLKQTRSKQAEEEF
For the molecule B1, in experiment [1], the “RTV Corrective Direction” value is recorded as “YES” and the “DYT + RTV/DYT Cohen's d” value is on record as 6.28. In addition, in experiment [2], the “WT + ISRIB/WT Cohen's d” value is −1.16; the “ISRIB and DYT Parallel Direction” value is listed as “YES”.

B2: Rab3gap2 (protein, UniProt Q8BMG7 1-1366, looked up)
Rab3 GTPase-activating …: MACSIVQFCSFQDLQSARDFLFPHLREETPGALKRDPSKTSSWEDDSWGAWEETEPREPEEEGNTSKTQKNSWLQECVLSLSPTSDLMVIAREQKAAFLVRKWKHGDKGKEEMQFAVGWSGSVSAEEGEYVTSALCIPLASQKRSSTGRPDWTCIVVGFTSGYVRFYTEGVLLLAQLLNEDKVLQLKCRTYEIPRHPGVTEQNEELSILYPAAIVTIDGFSLFQSLRACRNQVAKAAASGNENIQPPPLAYKKWGLQDIDTIIDHASVGIMTLSPFDQMKTASNIGGFNAAIKNSPPAMSQYITVGSSPFTGFFYALEGSTQPLLSHVALAVASKLTSALFSAASGWLGWKSKHEEDTVQKQKPKMEPATPLAVRFGLPDSRRHGESICLSPCNTLAAVTDDFGRVILLDVARGIAIRMWKGYRDAQVGWIQIVEDLHERVPEKGGFSPFGNTQGPSRVAQFLVIYAPRRGILEVWNTQQGPRVGAFNVGKHCRLLYPGYKIMGLNNVTSQSWQPQTYQICLVDPVSASVKAVNVPFHLALSDKKSERAKDLHLVKKLSALLRAKSPRPDSFETEIKELILDIKYPATKKQALESILASDRLSFSCLRNVTQTLMDTLKNQELESVDEGLLQFCASKLKLLHLYESVSQLNTLDFHSDTPFSDNDLAVLLRLDDKELLKLRALLEKYKQENTKATVRFSEDADRVLPVKTFLEYLEYEKDALSIRKIGEEECVALGSFFFWKCLHGKSSTEEMCHSLESAGLSPQQLLSLLLSVWLSKEKDILDKPQSVCCLHTMLSLLSKMKVAIDETWDSQSVSPWWQQMRMACIQSENSGAALLSAHVGHSVAAQMSSGATDKKFSQMELDADAEALTDSWEALSLDTEYWKLLLRQLEDCLILQTLLHSKLSPPAAKAPSLQSEPLPRLSVKKLLEGGKGGIADSVAKWIFKQDLSPELLKCANKERDVENPDEPREDLLHLAYEQFPCSLELDVLHAHCCWEYVVQWNKDPEEARFLVRSIEHLKQILNPHVQNGIALMMWNTFLVKRFSAATYLMDKVGKSPKDRLCRRDVGMSDTALTSFLGSCLELLQTSLEADISRDEVQVPVLDTEDAWLSVEGPISIVELALEQKPIHYPLVEHHSVLCSILYASMRFSLKSVKPLALFDSKGKNAFFKDLTSIQLLPSGEMDPNFISVRQQFLLKVVSAAVQAQHSKDKDPSAEAANTHWKDLNWPGLAVDLAHHLQVSDDVIRRHYVGELYSHGADLLGEEAIFQVQDKEVLASQLLVLTGQRLAHALFHTQTKEGMELLARLPPTLCTWLKAMNPQDLQNTGVPIAATAKLVHKVMELLPEKHGQYSLALHLIDAVEAMATL
Regarding B2, in experiment [1], the “RTV Corrective Direction” value is recorded as “YES” and the “DYT + RTV/DYT Cohen's d” value came to 4.70. Moreover, in experiment [2], the “WT + ISRIB/WT Cohen's d” value is −0.43; the “ISRIB and DYT Parallel Direction” value is listed as “YES”.

B3: Ap1b1 (protein, UniProt O35643 1-943, looked up)
AP-1 complex subunit beta-1: MTDSKYFTTTKKGEIFELKAELNSDKKEKKKEAVKKVIASMTVGKDVSALFPDVVNCMQTDNLELKKLVYLYLMNYAKSQPDMAIMAVNTFVKDCEDPNPLIRALAVRTMGCIRVDKITEYLCEPLRKCLKDEDPYVRKTAAVCVAKLHDINAQLVEDQGFLDTLKDLISDSNPMVVANAVAALSEIAESHPSSNLLDLNPQSINKLLTALNECTEWGQIFILDCLANYMPKDDREAQSICERVTPRLSHANSAVVLSAVKVLMKFMEMLSKDLDYYATLLKKLAPPLVTLLSAEPELQYVALRNINLIVQKRPEILKHEMKVFFVKYNDPIYVKLEKLDIMIRLASQANIAQVLAELKEYATEVDVDFVRKAVRAIGRCAIKVEQSAERCVSTLLDLIQTKVNYVVQEAIVVIKDIFRKYPNKYESVIATLCENLDSLDEPEARAAMIWIVGEYAERIDNADELLESFLEGFHDESTQVQLQLLTAIVKLFLKKPTETQELVQQVLSLATQDSDNPDLRDRGYIYWRLLSTDPVAAKEVVLAEKPLISEETDLIEPTLLDELICYIGTLASVYHKPPNAFVEGGRGVVHKSLPPRTASSESTESPETAPAGAPAGDQPDVIPAQGDLLGDLLNLDLGPPVSGPPLAASSVQMGAVDLLGGGLDSLIGDSNFGAPSASVAAAPAPARLGAPISSGLSDLFDLTSGVGTLSGSYVAPKAVWLPAMKAKGLEISGTFTRQAGSISMDLQLTNKALQVMTDFAIQFNRNSFGLAPAAPLQVHVPLSPNQTVEISLPLNTVGSVLKMEPLNNLQVAVKNNIDVFYFSTLYPLHVLFVEDGKMDRQMFLATWKDIANENEAQFQIRDCPLNTEAASNKLQSSNIFTVAKRNVEGQDMLYQSLKLTNGIWVLAELRIQPGNPSFTLSLKCRAPEVSQHVYQAYETILKN
In the case of B3, in experiment [1], the “RTV Corrective Direction” value is “YES” and the “DYT + RTV/DYT Cohen's d” value was found to be 4.53. Also, in experiment [2], the “WT + ISRIB/WT Cohen's d” value is given as −1.08; the “ISRIB and DYT Parallel Direction” value was “YES”.

B4: Spr (protein, UniProt P35270 1-261, looked up)
Sepiapterin reductase: MEGGLGRAVCLLTGASRGFGRTLAPLLASLLSPGSVLVLSARNDEALRQLEAELGAERSGLRVVRVPADLGAEAGLQQLLGALRELPRPKGLQRLLLINNAGSLGDVSKGFVDLSDSTQVNNYWALNLTSMLCLTSSVLKAFPDSPGLNRTVVNISSLCALQPFKGWALYCAGKAARDMLFQVLALEEPNVRVLNYAPGPLDTDMQQLARETSVDPDMRKGLQELKAKGKLVDCKVSAQKLLSLLEKDEFKSGAHVDFYDK
Take B4: in experiment [1], the “RTV Corrective Direction” value is “YES” and the “DYT + RTV/DYT Cohen's d” value was found to be 3.69. In addition, in experiment [2], the “WT + ISRIB/WT Cohen's d” value is −3.64; the “ISRIB and DYT Parallel Direction” value was “YES”.

B5: Copb2 (protein, UniProt O55029 1-905, looked up)
Coatomer subunit beta': MPLRLDIKRKLTARSDRVKSVDLHPTEPWMLASLYNGSVCVWNHETQTLVKTFEVCDLPVRAAKFVARKNWVVTGADDMQIRVFNYNTLERVHMFEAHSDYIRCIAVHPTQPFILTSSDDMLIKLWDWDKKWSCSQVFEGHTHYVMQIVINPKDNNQFASASLDRTIKVWQLGSSSPNFTLEGHEKGVNCIDYYSGGDKPYLISGADDRLVKIWDYQNKTCVQTLEGHAQNVSCASFHPELPIIITGSEDGTVRIWHSSTYRLESTLNYGMERVWCVASLRGSNNVALGYDEGSIIVKLGREEPAMSMDANGKIIWAKHSEVQQANLKAMGDTEIKDGERLPLAVKDMGSCEIYPQTIQHNPNGRFVVVCGDGEYIIYTAMALRNKSFGSAQEFAWAHDSSEYAIRESNSIVKIFKNFKEKKSFKPDFGAESIYGGFLLGVRSVNGLAFYDWENTELIRRIEIQPKHIFWSDSGELVCIATEESFFILKYLSEKVLAAQETHEGVTEDGIEDAFEVLGEIQEIVKTGLWVGDCFIYTSSVNRLNYYVGGEIVTIAHLDRTMYLLGYIPKDNRLYLGDKELNIVSYSLLVSVLEYQTAVMRRDFSMADKVLPTIPKEQRTRVAHFLEKQGFKQQALTVSTDPEHRFELALQLGELKIAYQLAVEAESEQKWKQLAELAISKCQFSLAQECLHHAQDYGGLLLLATASGNASMVNKLAEGAERDGKNNVAFMSYFLQGKLDACLELLIRTGRLPEAAFLARTYLPSQVSRVVKLWRENLSKVNQKAAESLADPTEYENLFPGLKEAFVVEEWVKETHADLWPAKQYPLVTPNEERNVMEEAKGFQPSRPTAQQEPDGKPASSPVIMASQTTHKEEKSLLELEVDLDNLELEDIDTTDINLDEDILDD
As for B5, in experiment [1], the “RTV Corrective Direction” value was “YES” and the “DYT + RTV/DYT Cohen's d” value was determined as 6.13. Also, in experiment [2], the “WT + ISRIB/WT Cohen's d” value is given as −1.11; the “ISRIB and DYT Parallel Direction” value was “YES”.

Values taken from patent US20260266848A1, “COMPOSITIONS AND METHODS FOR DIAGNOSING AND TREATING DYSTONIA” (Duke University, priority 2023, published 2026).
